Our source for the EC50 values is patent publication US20250346669A1.

The target of the assay is CD3 on CD3 expressing Jurkat cells (UniProt P07766). Description: flow cytometry on CD3 expressing Jurkat cells; concentration of half maximal binding. (In flow cytometry, cells or beads pass a laser one at a time.)
For orientation: EC50 means the midpoint of the concentration-response curve. Low readings indicate greater potency, high ones weaker potency. UCHT1 Fab fragment had a 50% effective concentration (EC50) of 0.6 nM. As for OKT3 Fab fragment, the 50% effective concentration (EC50) was found to be 23.7 nM. With “OKT3 (IgG version of the monospecific anti-CD3 antibody)” the figure was 0.3 nM. With “UCHT1 (IgG version of the monospecific anti-CD3 antibody)” the figure was 0.6 nM.
